Values belong to the molecule of their own block, whether it stands above or below them. Where a SMILES comes first, the peptide text is derived from it. Bridges are numbered along the chain shown (N, C = ends). Where no end group is shown, it is not given here.
Experiments:
[1] = target: T1, α‐FXIIa (Homo sapiens, UniProt P00748); test: α‐FXIIa enzymatic assay (S‐2302 chromogenic substrate cleavage, pNA release); type: biochemical; conditions: for IC50 / pIC50 ± SE: 33 °C, SE of the fit, n = 3–5 independent experiments; for IC50 (M): IC50 corresponding to the pIC50
T1 construct: purchased Enzyme Research Laboratories (Swansea, UK)
T1 sequence (P00748 373-615 limits assumed): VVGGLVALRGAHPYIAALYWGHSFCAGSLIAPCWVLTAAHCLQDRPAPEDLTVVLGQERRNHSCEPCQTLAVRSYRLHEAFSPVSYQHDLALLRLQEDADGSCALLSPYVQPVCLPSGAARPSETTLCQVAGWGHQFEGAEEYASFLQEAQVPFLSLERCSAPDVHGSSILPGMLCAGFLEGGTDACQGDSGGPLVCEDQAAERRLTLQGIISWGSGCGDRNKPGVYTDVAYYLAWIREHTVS
T1 sequence (P00748 20-372 partner limits assumed): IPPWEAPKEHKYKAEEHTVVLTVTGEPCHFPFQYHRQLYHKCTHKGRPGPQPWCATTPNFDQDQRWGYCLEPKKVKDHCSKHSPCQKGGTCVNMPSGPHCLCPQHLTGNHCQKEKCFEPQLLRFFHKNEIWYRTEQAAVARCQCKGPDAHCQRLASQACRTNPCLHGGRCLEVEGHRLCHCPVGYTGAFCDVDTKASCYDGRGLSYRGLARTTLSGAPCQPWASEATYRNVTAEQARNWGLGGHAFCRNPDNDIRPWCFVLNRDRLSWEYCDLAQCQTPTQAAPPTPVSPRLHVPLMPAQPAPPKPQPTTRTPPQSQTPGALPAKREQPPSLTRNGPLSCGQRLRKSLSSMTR
Procedure: The enzymatic activity of α‐FXIIa was measured by monitoring the amount of pNA chromophore released from substrate H‐D‐Pro‐Phe‐Arg‐pNA (S‐2302). Assays were performed in a 100‐μL volume at 33 °C in 96‐well plates in a Perkin Elmer (Seer Green, UK) Envision plate reader, and pNA release was followed over a period of 6 h by reading the absorbance at 405 nm. Absorbance values were converted to pNA concentrations by comparison with a standard curve obtained under exactly the same instrument conditions. All absorbance values were within the linear measurement range of the instrument. Initial rates were calculated on the basis of the first 30 min of incubation. To assess the K M, concentrations of substrate peptide between 0.1 mM and 0.6 mM were incubated with 10 nM α‐FXIIa, enzymatic activity was measured as described above, and data were analyzed by non‐linear regression with the Michaelis–Menten algorithm (GRAPHPAD PRISM, version 6.04). To assess the inhibitory mechanism of CTI, 30 nM CTI was incubated with these same concentrations of substrate peptide, the reaction was initiated by the addition of 10 nM α‐FXIIa, enzymatic activity was measured as described above, and data were analyzed by non‐linear regression with the Michaelis–Menten algorithm (GRAPHPAD PRISM, version 6.04) and by linear regression after Lineweaver–Burk transformation. To assay inhibitors, concentrations of CTI variant proteins between 10^−8 M and 10^−5 M or concentrations of peptides between 10^−6 M and 10^−3 M were incubated with 200 μM substrate peptide, the reaction was initiated by addition of 10 nM α‐FXIIa, enzymatic activity was measured as described above, and IC50 values were determined by non‐linear regression analysis (GRAPHPAD PRISM, version 6.04) using the log[inhibitor] versus response – variable slope algorithm with a bottom constraint.

[2] = target: Full length activated FXIIa (α‐FXIIa) (UniProt P00748)
[3] = synthetic peptides 10^−6 M to 10^−3 M, 200 μM S‐2302, 10 nM α‐FXIIa, initial rate, SEM
[4] = synthetic peptides 10^−6 M to 10^−3 M
[5] = synthetic peptides 10^−6 M to 10^−3 M, 200 μM S‐2302, 10 nM α‐FXIIa, initial rate
[6] = CTI variant proteins 10^−8 M to 10^−5 M, 200 μM S‐2302, 10 nM α‐FXIIa, initial rate of first 30 min, A405, SEM

Sequence of Full length activated FXIIa (α‐FXIIa) (P00748 20-615): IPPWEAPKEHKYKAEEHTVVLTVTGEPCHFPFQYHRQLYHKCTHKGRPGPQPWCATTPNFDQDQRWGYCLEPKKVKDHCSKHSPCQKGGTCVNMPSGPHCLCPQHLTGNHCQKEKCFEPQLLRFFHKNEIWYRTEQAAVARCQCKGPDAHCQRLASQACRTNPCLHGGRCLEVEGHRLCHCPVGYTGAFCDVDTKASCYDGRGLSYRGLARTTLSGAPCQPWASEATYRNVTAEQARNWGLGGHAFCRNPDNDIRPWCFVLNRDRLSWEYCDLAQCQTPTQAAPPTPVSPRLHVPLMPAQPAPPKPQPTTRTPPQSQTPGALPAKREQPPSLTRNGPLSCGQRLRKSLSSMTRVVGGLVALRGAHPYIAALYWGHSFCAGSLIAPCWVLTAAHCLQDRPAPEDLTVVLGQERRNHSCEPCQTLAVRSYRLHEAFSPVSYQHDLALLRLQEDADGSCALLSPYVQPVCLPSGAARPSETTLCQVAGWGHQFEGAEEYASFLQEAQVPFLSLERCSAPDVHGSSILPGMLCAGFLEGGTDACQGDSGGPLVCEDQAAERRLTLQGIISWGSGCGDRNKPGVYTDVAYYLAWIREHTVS

IC50 [1, 3]: 1150 µM
Molecule: YVTSRTAGIGPRLPWPELKRR [CTI(23–43)]

IC50 (M) [1, 4]: NIA
pIC50 ± SE [1, 5]: NIA
Molecule: IGPRLPWP [CTI(31–38), eight‐mer peptide spanning the loop between helices α1 and α2 (CTI residues 31–38)]

IC50 (M) [1, 4]: NIA
pIC50 ± SE [1, 5]: NIA
Molecule: GISTAGPWRRRPPELLKVTY [Scrambled, scrambled control peptide]

Inhibition of α‐FXIIa, result in words ([1]; 200 μM substrate peptide, 10 nM α‐FXIIa): did not inhibit
pIC50 ± SE ([1]; CTI variant proteins 10^−8 M to 10^−5 M, 200 μM S‐2302, 10 nM α‐FXIIa, initial rate of first 30 min, A405): NIA
IC50 (M) ([1]; CTI variant proteins 10^−8 M to 10^−5 M, 200 μM S‐2302, 10 nM α‐FXIIa): NIA
Molecule: glutathione‐S‐transferase [GST, reference compound]

IC50 [1, 3]: 457 µM
Molecule: RWYVTSRTAGIGPRLPWPELKRR [CTI(21–43)]

IC50 [1, 3]: 200 µM
Molecule: RWYVTSRTAGIGPRLPWPELKR [CTI(21–42)]

IC50 of inhibition of α‐FXIIa enzymatic activity (S‐2302 cleavage) [2]: 290 µM
pIC50 of inhibition of α‐FXIIa enzymatic activity (S‐2302 cleavage) [2]: 3.54
Molecule: CRWYVTSRTAGIGPRLPWPELKRRC [CTI(20–44) synthetic peptide]

The next lines start with the molecule.

Molecule: CC[C@H](C)[C@@H]1NC(=O)CNC(=O)[C@H](C)NC(=O)[C@H]([C@@H](C)O)NC(=O)[C@H](CCCNC(=N)N)NC(=O)[C@H](CO)NC(=O)[C@H]([C@@H](C)O)NC(=O)[C@H](C(C)C)NC(=O)[C@H](Cc2ccc(O)cc2)NC(=O)[C@H](Cc2c[nH]c3ccccc23)NC(=O)[C@H](CCCNC(=N)N)NC(=O)[C@@H](N)CSSC[C@@H](C(=O)O)NC(=O)[C@H](CCCNC(=N)N)NC(=O)[C@H](CCCNC(=N)N)NC(=O)[C@H](CCCCN)NC(=O)[C@H](CC(C)C)NC(=O)[C@H](CCC(=O)O)NC(=O)[C@@H]2CCCN2C(=O)[C@H](Cc2c[nH]c3ccccc23)NC(=O)[C@@H]2CCCN2C(=O)[C@H](CC(C)C)NC(=O)[C@H](CCCNC(=N)N)NC(=O)[C@@H]2CCCN2C(=O)CNC1=O [CTI(20–44)] (H-CRWYVTSRTAGIGPRLPWPELKRRC-OH; disulfide 1-25; N-terminus and C-terminus assumed)
Fold reduction in inhibitory activity as compared with rec‐CTI ([1]; synthetic peptides, relative to recombinant CTI): 2416 fold

B1: L35A: rec‐CTI variant, alanine substitution of Leu35 (protein)
chain: SAGTSCVPGWAIPHNPLPSCRWYVTSRTCGIGPRAPWPELKRRCCRELADIPAYCRCTALSILMDGAIPPGPDAQLEGRLEDLPGCPREVQRGFAATLVTEAECNLATISGVAECPWILGGGTMPSK
modifications: assayed as His6-GST fusion (tag omitted); disulfides
pIC50 ± SE [1, 6]: 5.31 ± 0.05

B2: R42A/R43A: rec‐CTI R42A/R43A double mutant (protein)
chain: SAGTSCVPGWAIPHNPLPSCRWYVTSRTCGIGPRLPWPELKAACCRELADIPAYCRCTALSILMDGAIPPGPDAQLEGRLEDLPGCPREVQRGFAATLVTEAECNLATISGVAECPWILGGGTMPSK
modifications: assayed as His6-GST fusion (tag omitted); disulfides
pIC50 ± SE [1, 6]: 4.98 ± 0.02

B3: R42A: rec‐CTI variant, alanine substitution of Arg42 (protein)
chain: SAGTSCVPGWAIPHNPLPSCRWYVTSRTCGIGPRLPWPELKARCCRELADIPAYCRCTALSILMDGAIPPGPDAQLEGRLEDLPGCPREVQRGFAATLVTEAECNLATISGVAECPWILGGGTMPSK
modifications: assayed as His6-GST fusion (tag omitted); disulfides
pIC50 ± SE [1, 6]: 6.72 ± 0.15

B4: W22A: rec‐CTI variant, alanine substitution of Trp22 (protein)
chain: SAGTSCVPGWAIPHNPLPSCRAYVTSRTCGIGPRLPWPELKRRCCRELADIPAYCRCTALSILMDGAIPPGPDAQLEGRLEDLPGCPREVQRGFAATLVTEAECNLATISGVAECPWILGGGTMPSK
modifications: assayed as His6-GST fusion (tag omitted); disulfides
pIC50 ± SE [1, 6]: 4.72 ± 0.24

B5: E39A: rec‐CTI variant, alanine substitution of Glu39 (protein)
chain: SAGTSCVPGWAIPHNPLPSCRWYVTSRTCGIGPRLPWPALKRRCCRELADIPAYCRCTALSILMDGAIPPGPDAQLEGRLEDLPGCPREVQRGFAATLVTEAECNLATISGVAECPWILGGGTMPSK
modifications: assayed as His6-GST fusion (tag omitted); disulfides
pIC50 ± SE [1, 6]: 6.85 ± 0.06

B6: R27A: rec‐CTI variant, alanine substitution of Arg27 (protein)
chain: SAGTSCVPGWAIPHNPLPSCRWYVTSATCGIGPRLPWPELKRRCCRELADIPAYCRCTALSILMDGAIPPGPDAQLEGRLEDLPGCPREVQRGFAATLVTEAECNLATISGVAECPWILGGGTMPSK
modifications: assayed as His6-GST fusion (tag omitted); disulfides
pIC50 ± SE [1, 6]: 6.78 ± 0.04

B7: R27A/R42A: rec‐CTI double substitution R27A/R42A (protein)
chain: SAGTSCVPGWAIPHNPLPSCRWYVTSATCGIGPRLPWPELKARCCRELADIPAYCRCTALSILMDGAIPPGPDAQLEGRLEDLPGCPREVQRGFAATLVTEAECNLATISGVAECPWILGGGTMPSK
modifications: assayed as His6-GST fusion (tag omitted); disulfides
pIC50 ± SE [1, 6]: 6.80 ± 0.05

B8: R27A/E39A: rec‐CTI double substitution R27A/E39A (protein)
chain: SAGTSCVPGWAIPHNPLPSCRWYVTSATCGIGPRLPWPALKRRCCRELADIPAYCRCTALSILMDGAIPPGPDAQLEGRLEDLPGCPREVQRGFAATLVTEAECNLATISGVAECPWILGGGTMPSK
modifications: assayed as His6-GST fusion (tag omitted); disulfides
pIC50 ± SE [1, 6]: 6.58 ± 0.08

B9: W37A: rec‐CTI variant, alanine substitution of Trp37 (protein)
chain: SAGTSCVPGWAIPHNPLPSCRWYVTSRTCGIGPRLPAPELKRRCCRELADIPAYCRCTALSILMDGAIPPGPDAQLEGRLEDLPGCPREVQRGFAATLVTEAECNLATISGVAECPWILGGGTMPSK
modifications: assayed as His6-GST fusion (tag omitted); disulfides
pIC50 ± SE [1, 6]: 6.97 ± 0.06

B10: G30W: rec‐CTI variant, replacement of Gly30 with a tryptophan (protein)
chain: SAGTSCVPGWAIPHNPLPSCRWYVTSRTCWIGPRLPWPELKRRCCRELADIPAYCRCTALSILMDGAIPPGPDAQLEGRLEDLPGCPREVQRGFAATLVTEAECNLATISGVAECPWILGGGTMPSK
modifications: assayed as His6-GST fusion (tag omitted); disulfides
pIC50 ± SE [1, 6]: 6.32 ± 0.06

B11: G32W: rec‐CTI variant, replacement of Gly32 with tryptophan (protein)
chain: SAGTSCVPGWAIPHNPLPSCRWYVTSRTCGIWPRLPWPELKRRCCRELADIPAYCRCTALSILMDGAIPPGPDAQLEGRLEDLPGCPREVQRGFAATLVTEAECNLATISGVAECPWILGGGTMPSK
modifications: assayed as His6-GST fusion (tag omitted); disulfides
pIC50 ± SE [1, 6]: 4.89 ± 0.06

Reference: article PMC5638086, “Assessment of the protein interaction between coagulation factor XII and corn trypsin inhibitor by molecular docking and biochemical validation” (Journal of Thrombosis and Haemostasis, 2017)
